Data as given in paper PMC8268162, “A Master Regulator BrpR Coordinates the Expression of Multiple Loci for Robust Biofilm and Rugose Colony Development in Vibrio vulnificus”.

Target: T1, BrpR-His6
T1 chain: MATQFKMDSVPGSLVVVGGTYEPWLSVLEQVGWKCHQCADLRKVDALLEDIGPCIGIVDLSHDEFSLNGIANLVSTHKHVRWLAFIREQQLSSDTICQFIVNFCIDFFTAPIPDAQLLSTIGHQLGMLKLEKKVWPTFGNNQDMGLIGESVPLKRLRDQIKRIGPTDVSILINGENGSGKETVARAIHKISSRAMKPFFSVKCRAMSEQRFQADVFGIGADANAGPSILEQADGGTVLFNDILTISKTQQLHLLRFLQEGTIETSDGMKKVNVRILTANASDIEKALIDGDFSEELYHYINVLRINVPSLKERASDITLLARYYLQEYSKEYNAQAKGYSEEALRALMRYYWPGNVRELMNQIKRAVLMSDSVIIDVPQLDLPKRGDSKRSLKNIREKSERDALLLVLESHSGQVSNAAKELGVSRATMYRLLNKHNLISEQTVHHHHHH
Experiment: EMSA; 50 uM c-di-GMP; 40 mM Tris-Cl pH 7.9, 100 mM KCl, 10 mM MgCl2, 1 mM DTT, 0.1 mM EDTA, 0.1 ug/ul BSA, 0.1 ug poly(dI-dC) in 20 ul, 25 min at 30 C; EMSA DNA 5 nM, footprinting DNA 40 nM
Details: protein: recombinant; tags: C-terminal His6; label: 6-FAM on reverse strand; blunt

B1: BRPBwt (dsDNA)
DNA 1: GTTTGCAATGTCTCATTGGTGCGACGAATGCTTTGGCG
DNA 2: CGCCAAAGCATTCGTCGCACCAATGAGACATTGCAAAC
B1: binds.
